Assay results reported in PMC2132652 (The Journal of Cell Biology, 1997).

Molecular target: the molecule itself
Assay: cross-linking

B1: furin-HA (mouse furin tagged with the HA epitope), expressed stably in RBL cells (enzyme, UniProt P23188 108-793, looked up)
chain: DVYQEPTDPKFPQQWYLSGVTQRDLNVKEAWAQGFTGHGIVVSILDDGIEKNHPDLAGNYDPGASFDVNDQDPDPQPRYTQMNDNRHGTRCAGEVAAVANNGVCGVGVAYNARIGGVRMLDGEVTDAVEARSLGLNPNHIHIYSASWGPEDDGKTVDGPARLAEEAFFRGVSQGRGGLGSIFVWASGNGGREHDSCNCDGYTNSIYTLSISSATQFGNVPWYSEACSSTLATTYSSGNQNEKQIVTTDLRQKCTESHTGTSASAPLAAGIIALTLEANKNLTWRDMQHLVVQTSKPAHLNADDWATNGVGRKVSHSYGYGLLDAGAMVALAQNWTTVAPQRKCIVEILVEPKDIGKRLEVRKAVTACLGEPNHITRLEHVQARLTLSYNRRGDLAIHLISPMGTRSTLLAARPHDYSADGFNDWAFMTTHSWDEDPAGEWVLEIENTSEANNYGTLTKFTLVLYGTAPEGLSTPPESSGCKTLTSSQACVVCEEGYSLHQKSCVQHCPPGFIPQVLDTHYSTENDVEIIRASVCTPCHASCATCQGPAPTDCLSCPSHASLDPVEQTCSRQSQSSRESRPQQQPPALRPEVEMEPRLQAGLASHLPEVLAGLSCLIIVLIFGIVFLFLHRCSGFSFRGVKVYTMDRGLISYKGLPPEAWQEECPSDSEEDEGRGERTAFIKDQSAL
stoichiometry N: 2

B2: furin-FLAG (mouse furin tagged with the FLAG epitope), expressed stably in RBL cells (enzyme)
chain: B1 chain
stoichiometry N: 2
